Laboratory results from EP1724589A2.

Columns and labels:
S-100b [1] = test: ELISA saturation curve with Scatchard analysis (Figure 9): S-100b coated at 100 ng/well, sRAGE about 0.3 to 10 nM, high affinity component
S-100b [2] = test: ELISA saturation curves with Scatchard analysis (Figures 10 and 11): S-100b coated at 500 and 100 ng/well, sRAGE about 23 to 470 nM or 5 to 76 nM, low affinity site
S-100b [3] = test: ELISA saturation curve with Scatchard analysis (Figure 8): S-100b coated at 50 ng/well, sRAGE about 0.3 to 10 nM, high affinity component
S-100b [4] = test: ELISA: 88 wells coated with S-100b at 500 ng/well, sRAGE at 2.2 x 10^-4 mg/ml, polyclonal anti-sRAGE detection (Figure 7)
S-100b [5] = test: ELISA: S-100b coated at 500 ng/well, sRAGE at 1.0 x 10^-4 mg/ml, detected with anti-sRAGE antibody complex

soluble RAGE (sRAGE), the soluble, extracellular portion of human Receptor for Advanced Glycated Endproducts (from UniProt Q15109 23-339)
Kd (S-100b [1]): 2 nM
Kd (S-100b [2]): 60 nM
Kd (S-100b [3]): 6 nM
average OD405 (S-100b [4]): 0.705 OD405
OD (maximal signal) (S-100b [5]): 1.06 OD
